Test results taken from the supplement of paper PMC10065799, “High-throughput profiling of sequence recognition by tyrosine kinases and SH2 domains using bacterial peptide display” (eLife, 2023).

Columns and labels:
Grb2 SH2 = Grb2 SH2 (UniProt P62993); assay: SH2 binding enrichment of the phosphorylated peptide, bacterial display (enrichment ratio); higher = better substrate or ligand; peptides without Tyr show the background
SHP2-C SH2 = assay: as above
c-Src SH2 = assay: as above
Hck = Hck (UniProt P08631); assay: phosphorylation enrichment, bacterial display (enrichment ratio); higher = better substrate or ligand; peptides without Tyr show the background
Sequence of Hck (P08631 whole entry, looked up): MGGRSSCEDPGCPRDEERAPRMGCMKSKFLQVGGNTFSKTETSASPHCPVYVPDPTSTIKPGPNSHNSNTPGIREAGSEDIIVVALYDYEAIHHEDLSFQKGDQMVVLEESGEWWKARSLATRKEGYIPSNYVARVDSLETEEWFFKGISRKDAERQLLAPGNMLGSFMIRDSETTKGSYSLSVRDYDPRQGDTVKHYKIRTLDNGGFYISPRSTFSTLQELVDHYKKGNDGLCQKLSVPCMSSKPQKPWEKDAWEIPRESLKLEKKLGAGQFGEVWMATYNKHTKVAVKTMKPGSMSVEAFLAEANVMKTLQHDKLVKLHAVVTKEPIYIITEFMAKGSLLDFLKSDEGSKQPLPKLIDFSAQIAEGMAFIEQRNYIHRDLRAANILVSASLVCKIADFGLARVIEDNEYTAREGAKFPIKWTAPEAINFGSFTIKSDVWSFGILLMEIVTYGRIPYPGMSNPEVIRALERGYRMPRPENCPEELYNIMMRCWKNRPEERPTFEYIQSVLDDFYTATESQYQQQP

FGFR1 = FGFR1 (UniProt P11362); assay: as above
Fyn = Fyn (UniProt P06241); assay: as above
Sequence of Fyn (P06241 whole entry, looked up): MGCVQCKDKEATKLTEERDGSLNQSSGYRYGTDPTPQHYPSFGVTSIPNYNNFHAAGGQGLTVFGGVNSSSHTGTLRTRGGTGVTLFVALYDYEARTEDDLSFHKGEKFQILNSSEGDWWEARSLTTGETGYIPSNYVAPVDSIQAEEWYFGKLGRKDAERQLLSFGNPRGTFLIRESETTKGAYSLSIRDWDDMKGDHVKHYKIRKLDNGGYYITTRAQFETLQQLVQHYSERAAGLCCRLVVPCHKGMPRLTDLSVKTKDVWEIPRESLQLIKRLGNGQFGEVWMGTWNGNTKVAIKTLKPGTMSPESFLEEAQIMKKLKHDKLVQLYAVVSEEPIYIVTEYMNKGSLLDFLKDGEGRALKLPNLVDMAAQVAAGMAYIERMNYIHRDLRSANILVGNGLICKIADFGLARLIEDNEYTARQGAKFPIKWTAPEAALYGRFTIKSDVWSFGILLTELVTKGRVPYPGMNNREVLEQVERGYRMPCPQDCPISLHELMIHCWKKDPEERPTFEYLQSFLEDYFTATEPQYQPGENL

MERTK = MERTK (UniProt Q12866); assay: as above
Sequence of MERTK (Q12866 whole entry, looked up): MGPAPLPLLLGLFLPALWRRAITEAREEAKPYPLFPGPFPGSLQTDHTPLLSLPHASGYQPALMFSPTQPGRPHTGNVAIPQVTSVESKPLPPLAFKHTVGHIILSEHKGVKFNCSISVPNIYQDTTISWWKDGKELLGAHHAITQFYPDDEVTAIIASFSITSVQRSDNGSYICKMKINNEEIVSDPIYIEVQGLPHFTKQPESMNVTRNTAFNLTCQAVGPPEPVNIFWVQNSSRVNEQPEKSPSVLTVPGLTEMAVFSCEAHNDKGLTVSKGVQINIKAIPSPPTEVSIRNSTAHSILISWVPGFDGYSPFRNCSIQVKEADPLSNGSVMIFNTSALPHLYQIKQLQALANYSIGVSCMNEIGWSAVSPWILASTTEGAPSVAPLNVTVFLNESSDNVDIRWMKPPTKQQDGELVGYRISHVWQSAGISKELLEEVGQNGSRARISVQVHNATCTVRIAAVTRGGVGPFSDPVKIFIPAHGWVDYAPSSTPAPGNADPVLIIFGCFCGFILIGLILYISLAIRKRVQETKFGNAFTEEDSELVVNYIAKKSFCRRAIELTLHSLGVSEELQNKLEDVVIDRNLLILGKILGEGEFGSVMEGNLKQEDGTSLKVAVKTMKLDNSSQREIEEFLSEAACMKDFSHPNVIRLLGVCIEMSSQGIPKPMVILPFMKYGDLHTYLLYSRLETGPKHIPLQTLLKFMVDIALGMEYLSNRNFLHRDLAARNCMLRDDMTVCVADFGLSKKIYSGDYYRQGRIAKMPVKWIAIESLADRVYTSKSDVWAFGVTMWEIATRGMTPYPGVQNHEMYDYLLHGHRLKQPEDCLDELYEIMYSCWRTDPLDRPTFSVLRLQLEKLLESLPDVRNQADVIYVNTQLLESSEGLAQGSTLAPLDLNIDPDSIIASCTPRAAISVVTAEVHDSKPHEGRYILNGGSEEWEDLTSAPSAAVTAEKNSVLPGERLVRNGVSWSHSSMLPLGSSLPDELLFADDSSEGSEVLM

Jak2 = Jak2 (UniProt O60674); assay: as above
EPHB1 = EPHB1 (UniProt P54762); assay: as above
Sequence of EPHB1 (P54762 whole entry, looked up): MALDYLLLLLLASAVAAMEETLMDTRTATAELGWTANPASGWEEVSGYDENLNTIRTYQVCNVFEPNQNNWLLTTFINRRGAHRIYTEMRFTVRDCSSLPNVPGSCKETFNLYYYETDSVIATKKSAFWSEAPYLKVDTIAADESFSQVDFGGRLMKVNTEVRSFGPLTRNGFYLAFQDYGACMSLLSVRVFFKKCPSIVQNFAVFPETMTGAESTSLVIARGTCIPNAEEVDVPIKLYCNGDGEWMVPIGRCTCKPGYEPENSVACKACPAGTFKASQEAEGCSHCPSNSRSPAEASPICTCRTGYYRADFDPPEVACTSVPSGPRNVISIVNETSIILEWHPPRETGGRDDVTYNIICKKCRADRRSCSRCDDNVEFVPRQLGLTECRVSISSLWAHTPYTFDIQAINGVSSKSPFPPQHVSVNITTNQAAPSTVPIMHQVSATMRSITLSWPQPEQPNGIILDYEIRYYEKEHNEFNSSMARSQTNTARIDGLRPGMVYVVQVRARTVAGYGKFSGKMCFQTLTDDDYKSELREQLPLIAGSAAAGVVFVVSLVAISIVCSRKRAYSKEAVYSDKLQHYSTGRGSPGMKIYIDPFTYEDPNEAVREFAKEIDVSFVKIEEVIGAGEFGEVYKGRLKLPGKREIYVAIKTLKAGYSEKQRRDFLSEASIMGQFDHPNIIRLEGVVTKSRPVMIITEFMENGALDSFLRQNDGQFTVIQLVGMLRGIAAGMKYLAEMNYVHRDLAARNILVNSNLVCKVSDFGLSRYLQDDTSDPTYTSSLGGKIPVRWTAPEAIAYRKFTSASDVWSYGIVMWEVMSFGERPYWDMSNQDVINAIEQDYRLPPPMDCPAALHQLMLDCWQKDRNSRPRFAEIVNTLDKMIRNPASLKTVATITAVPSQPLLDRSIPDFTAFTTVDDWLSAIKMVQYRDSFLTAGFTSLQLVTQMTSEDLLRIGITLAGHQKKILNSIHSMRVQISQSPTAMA

Fer (mouse) = assay: as above
EPHB2 = EPHB2 (UniProt P29323); assay: as above
AncSZ = assay: as above
FGFR3 = FGFR3 (UniProt P22607); assay: as above
Sequence of FGFR3 (P22607 whole entry, looked up): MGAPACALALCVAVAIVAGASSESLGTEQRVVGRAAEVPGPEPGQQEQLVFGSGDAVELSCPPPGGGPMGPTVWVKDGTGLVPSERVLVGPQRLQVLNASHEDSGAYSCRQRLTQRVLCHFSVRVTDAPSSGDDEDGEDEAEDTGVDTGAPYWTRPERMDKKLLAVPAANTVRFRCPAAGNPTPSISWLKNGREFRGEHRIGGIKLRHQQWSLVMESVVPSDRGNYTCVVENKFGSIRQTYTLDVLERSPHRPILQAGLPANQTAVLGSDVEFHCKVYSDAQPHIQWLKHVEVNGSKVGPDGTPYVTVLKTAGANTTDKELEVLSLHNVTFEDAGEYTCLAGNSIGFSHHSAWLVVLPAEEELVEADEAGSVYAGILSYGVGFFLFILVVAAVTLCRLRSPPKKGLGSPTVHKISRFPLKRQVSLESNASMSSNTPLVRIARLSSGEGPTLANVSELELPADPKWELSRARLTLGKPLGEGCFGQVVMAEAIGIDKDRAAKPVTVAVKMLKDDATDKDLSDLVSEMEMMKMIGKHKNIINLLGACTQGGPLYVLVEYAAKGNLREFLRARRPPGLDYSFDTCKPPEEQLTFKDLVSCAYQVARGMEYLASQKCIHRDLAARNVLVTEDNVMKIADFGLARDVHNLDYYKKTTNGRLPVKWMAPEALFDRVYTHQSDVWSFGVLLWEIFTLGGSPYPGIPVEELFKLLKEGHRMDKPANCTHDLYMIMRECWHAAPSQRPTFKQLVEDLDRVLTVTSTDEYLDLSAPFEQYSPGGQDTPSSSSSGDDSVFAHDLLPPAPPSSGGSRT

c-Src = assay: as above
Fes = Fes (UniProt P07332); assay: as above
Sequence of Fes (P07332 whole entry, looked up): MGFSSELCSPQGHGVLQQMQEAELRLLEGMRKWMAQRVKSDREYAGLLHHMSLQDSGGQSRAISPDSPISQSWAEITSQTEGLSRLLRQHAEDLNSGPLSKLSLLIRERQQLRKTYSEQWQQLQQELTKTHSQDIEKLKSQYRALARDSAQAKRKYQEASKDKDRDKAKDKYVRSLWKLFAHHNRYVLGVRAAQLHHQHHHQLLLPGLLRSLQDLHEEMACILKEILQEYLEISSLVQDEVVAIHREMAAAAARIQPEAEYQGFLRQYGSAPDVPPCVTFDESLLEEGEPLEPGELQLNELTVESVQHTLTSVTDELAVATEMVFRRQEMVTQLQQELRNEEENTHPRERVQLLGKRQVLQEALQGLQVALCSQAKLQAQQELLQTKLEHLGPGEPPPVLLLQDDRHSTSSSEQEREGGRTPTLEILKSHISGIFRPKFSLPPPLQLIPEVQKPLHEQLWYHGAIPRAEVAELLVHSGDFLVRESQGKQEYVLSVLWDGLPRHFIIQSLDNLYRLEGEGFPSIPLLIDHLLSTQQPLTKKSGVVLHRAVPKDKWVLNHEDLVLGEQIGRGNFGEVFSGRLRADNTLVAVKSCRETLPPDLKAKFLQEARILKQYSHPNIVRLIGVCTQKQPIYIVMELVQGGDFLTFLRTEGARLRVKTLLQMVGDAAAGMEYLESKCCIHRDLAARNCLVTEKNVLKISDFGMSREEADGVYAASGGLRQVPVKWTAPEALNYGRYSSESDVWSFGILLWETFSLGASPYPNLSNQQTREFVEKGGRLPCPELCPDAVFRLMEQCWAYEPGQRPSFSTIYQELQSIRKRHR

c-Abl (mouse) = assay: as above
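For SH2 binding enrichment of the phosphorylated peptide, bacterial display in this document: peptide library displayed on the E. coli surface as eCPX fusions, selected cells deep-sequenced, score is each peptide's frequency after selection divided by its frequency in the input.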
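For phosphorylation enrichment, bacterial display in this document: 11-residue human phosphosite peptides and single-mutation variants displayed on the E. coli surface, counted by deep sequencing, each peptide's frequency after selection divided by its frequency in the unselected input library; frequency after pTyr selection over input frequency; kinase dosed for 20-30% of maximal phosphorylation in three min.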

Row | SH2 binding enrichment (Grb2 SH2) | SH2 binding enrichment (SHP2-C SH2) | SH2 binding enrichment (c-Src SH2) | Sequence | phosphorylation enrichment (Hck) | phosphorylation enrichment (FGFR1) | phosphorylation enrichment (Fyn) | phosphorylation enrichment (MERTK) | phosphorylation enrichment (Jak2) | phosphorylation enrichment (EPHB1) | phosphorylation enrichment (Fer (mouse)) | phosphorylation enrichment (EPHB2) | phosphorylation enrichment (AncSZ) | phosphorylation enrichment (FGFR3) | phosphorylation enrichment (c-Src) | phosphorylation enrichment (Fes) | phosphorylation enrichment (c-Abl (mouse))
1 | 1.19 | 0.829 | 0.791 | PPSGEYFGQCG [TRIP6_Y275] | 0.764 | 1.23 | 0.552 | 0.573 | 1.52 | 1.39 | 0.824 | 0.953 | 1.58 | 1.06 | 0.771 | 1.37 | 1.58
2 | 1.2 | 0.812 | 0.833 | PQQLWYTHEKK [UBTF_Y207] | 0.496 | 0.516 | 0.409 | 0.361 | 0.802 | 0.58 | 0.339 | 0.327 | 0.652 | 0.481 | 0.473 | 0.792 | 0.499
3 | 0.759 | 0.454 | 0.438 | PSPTRYSLSPS [RANBP2_Y785] | 0.515 | 0.525 | 0.537 | 0.56 | 0.439 | 0.536 | 0.436 | 0.856 | 0.976 | 0.577 | 0.597 | 0.886 | 1.5

Further lines, the sequence ahead of its results:

Row | Sequence | SH2 binding enrichment (Grb2 SH2) | SH2 binding enrichment (SHP2-C SH2) | SH2 binding enrichment (c-Src SH2) | phosphorylation enrichment (Hck) | phosphorylation enrichment (FGFR1) | phosphorylation enrichment (Fyn) | phosphorylation enrichment (MERTK) | phosphorylation enrichment (Jak2) | phosphorylation enrichment (EPHB1) | phosphorylation enrichment (Fer (mouse)) | phosphorylation enrichment (EPHB2) | phosphorylation enrichment (AncSZ) | phosphorylation enrichment (FGFR3) | phosphorylation enrichment (c-Src) | phosphorylation enrichment (Fes) | phosphorylation enrichment (c-Abl (mouse))
4 | PRAEWYRDDVL [MYOM2_Y317] | 0.802 | 0.637 | 0.585 | 0.586 | 0.507 | 0.572 | 0.681 | 1.11 | 0.959 | 0.767 | 0.725 | 1.31 | 0.818 | 0.546 | 1.46 | 0.879
5 | PSDSGYSFETI [MAP1B_Y1921_YF] | 0.971 | 0.874 | 2.13 | 0.635 | 0.633 | 0.703 | 0.641 | 1.25 | 0.639 | 0.608 | 1.1 | 1.05 | 1.05 | 0.405 | 1.25 | 0.763
6 | PSDSGYSYETI [MAP1B_Y1921] | 1.79 | 0.523 | 7.7 | 0.577 | 0.627 | 0.599 | 0.583 | 0.848 | 0.596 | 0.642 | 0.467 | 1.35 | 0.688 | 0.454 | 1.38 | 0.664
7 | PSQRCYVYYYS [PTEN_Y174_R173C] | 0.825 | 0.645 | 0.286 | 1.03 | 1.41 | 1.09 | 2.02 | 2.59 | 0.931 | 0.807 | 0.556 | 2.35 | 1.8 | 3.16 | 2.28 | 1.77
8 | PTEAQYRFIYM [PTPN11_Y511_Q506P] | 0.528 | 0.673 | 0.335 | 1.35 | 3.16 | 1.04 | 1.18 | 2.37 | 1.08 | 1.54 | 0.777 | 2.44 | 2.82 | 1.75 | 2.2 | 1.98
